For the assay, the target named is non-phosphorylated PTEN (n-PTEN). In words: fluorescence polarisation.

B1: F-HECT-WWP2 (domain or fragment)
chain: KPYDLRRRLYIIMRGEEGLDYGGIAREWFFLLSHEVLNPMYCLFEYAGKNNYCLQINPASSINPDHLTYFRFIGRFIAMALYHGKFIDTGFTLPFYKRMLNKRPTLKDLESIDPEFYNSIVWIKENNLEECGLELYFIQDMEILGKVTTHELKEGGESIRVTEENKEEYIMLLTDWRFTRGVEEQTKAFLDGFNEVAPLEWLRYFDEKELELMLCGMQEIDMSDWQKSTIYRHYTKNSKQIQWFWQVVKEMDNEKRIRLLQFVTGTCRLPVGGFAELIGSNGPQKFCIDKVGKETWLPRSHTCFNRLDLPPYKSYEQLREKLLYAIEETEGFGQE
modifications: fluorescein on the N-terminal Cys
The molecule B1 gave a Kd of 120 µM.

Source of the values: paper PMC6093203 (Journal of the American Chemical Society, 2018).
